Columns and labels:
Her2-Fc [1] = molecular target: T1, Her2-Fc (human, UniProt P04626 23-652); assay: ELISA on coated Her2-Fc; after 24 h in mouse serum at 37 C
T1 construct: Coated in ELISA
Protocol: (§1) High binding plates (Greiner, 781061) were immobilized with 2.5 μg/ml hFAP-Fc or 1.2 μg/ml Her2-Fc over night at 4° C. Dilution series of 3 μM to 0.07 pM of fusion proteins with binding specifically to Her2 were incubated in 100% human serum or 100% mouse serum for 24 h at 37° C. Dilution series of 3 µM to 0.2 pM or 1 μM to 0.01 fM of fusion proteins with binding specifically to hFAP were incubated in 100% human serum or 100% mouse serum for 24 h at 37° C. ELISA-plates were washed three times with PBST (PBS+0.1% Tween) and blocked with 3% BSA/0.5% Tween/PBS up to 2 h at room temperature (rt). After preincubation for 0 h or 24 h in the presence of serum the dilution series were incubated on ELISA-plates for up to 1 h at rt. Wells were washed with PBST and incubated with biotinylated anti-ubiquitin-antibody (1:300) for up to 1 h at rt. The binding was visualized with Streptavidin-HRP (1:5.000).
(§2) The fusion proteins comprise the albumin binding domain (referred to as HED) and the targeting moiety.

[2] = molecular target: T2, Her2 (immobilised on the SPR chip) (human, UniProt P04626 23-652, limits assumed); assay: SPR, Her2 immobilised on the chip, pH 7.3, 1:1 Langmuir fit
T2 construct: construct not described; also called human epidermal growth factor receptor 2
Protocol: (§3) Recombinant protein A, HSA, MSA or target (either ED-B or Her2) was immobilized on a High Capacity Amine sensor chip (Bruker) after NHS/EDC activation with a Sierra SPR-32 system (Bruker). The chip was equilibrated with SPR running buffer (PBS 0.05%, Tween pH 7.3). Injection of ethanolamine after target immobilization was used to block free NHS groups. To determine the binding of fusion proteins to FAP, the Fc-tagged target was injected with 60 or 30 nM to Protein A coupled spots followed by the injection of fusion proteins.
(§4) Binding proteins were applied to the chip in serial dilutions with a flow rate of 30 μl/min. Upon binding, analyte accumulated on the surface increasing the refractive index. This change in the refractive index was measured in real time and plotted as response or resonance units versus time. The association was performed for 120 seconds and the dissociation for 180 seconds. After each run, the chip surface was regenerated with 30 μl regeneration buffer (10 mM glycine pH 2.0 or pH 1.5) and equilibrated with running buffer. Binding studies were carried out using the Sierra SPR-32 system (Bruker); data evaluation was operated via the Sierra Analyser software, provided by the manufacturer, by the use of the Langmuir 1:1 model (RI=0).

Her2-Fc [3] = molecular target: T1, Her2-Fc; assay: ELISA on coated Her2-Fc; after 24 h in human serum at 37 C
Protocol: as §1, §2

Her2-Fc [4] = molecular target: T1, Her2-Fc; assay: ELISA on coated Her2-Fc; 24 h in human serum at 37 C
Protocol: as §1, §2

Her2-Fc [5] = molecular target: T1, Her2-Fc; assay: ELISA on coated Her2-Fc; KD 24 h against KD 0 h, human serum
Protocol: as §1, §2

human serum albumin = molecular target: T3, human serum albumin (human, UniProt P02768 25-609); assay: SPR, HSA immobilised on the chip, pH 7.3, 1:1 Langmuir fit
T3 construct: also called HSA
T3 sequence (P02768 25-609 limits assumed): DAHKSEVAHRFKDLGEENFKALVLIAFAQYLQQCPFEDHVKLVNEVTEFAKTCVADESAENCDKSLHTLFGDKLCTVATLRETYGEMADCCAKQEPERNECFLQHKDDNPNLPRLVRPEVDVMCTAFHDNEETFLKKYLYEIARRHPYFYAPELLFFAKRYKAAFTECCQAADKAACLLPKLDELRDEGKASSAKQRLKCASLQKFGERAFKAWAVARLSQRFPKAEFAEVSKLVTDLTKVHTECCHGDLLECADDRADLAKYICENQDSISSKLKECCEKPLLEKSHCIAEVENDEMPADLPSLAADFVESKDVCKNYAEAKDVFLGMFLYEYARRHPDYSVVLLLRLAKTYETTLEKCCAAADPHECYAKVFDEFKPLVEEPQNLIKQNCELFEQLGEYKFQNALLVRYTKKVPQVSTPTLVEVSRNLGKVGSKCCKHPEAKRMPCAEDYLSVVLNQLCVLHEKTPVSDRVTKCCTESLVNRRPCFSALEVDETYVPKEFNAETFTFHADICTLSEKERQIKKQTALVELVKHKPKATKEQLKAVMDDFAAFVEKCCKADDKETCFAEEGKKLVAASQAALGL
Protocol: as §3, §4

Her2-Fc [6] = molecular target: T1, Her2-Fc; assay: ELISA on coated Her2-Fc; KD 24 h against KD 0 h, mouse serum
Protocol: as §1, §2

[7] = molecular target: T4, Her2 expressed on Sk-Br-3 cells (human, UniProt P04626 23-1255); assay: flow cytometry, dilution series on Sk-Br-3 cells
T4 construct: whole, on cells; also called human epidermal growth factor receptor 2
Protocol: Her2 expressing Sk-Br-3-cells and HEK293-hFAP overexpressing cells were thawed, washed with medium containing FCS, subsequently washed with FACS blocking buffer (PBS/0.1% Sodium Azide/3% FCS) and 100 μl seeded in 96-well round bottom plates with a density of 1×10⁶ cells/ml. Dilution series from 10 µM to 8.6 fM (CID 217781, CID 217787) and a dilution series of 3 µM to 0.2 μM (CID 218466, CID 218467, 218512, CID 218513, CID 218514, CID 218515, CID 218516) were incubated on Her2-expressing Sk-Br-3-cells and dilution series from 1 μM to 0.07 μM of fusion proteins 218690 and 218702 were incubated on hFAP-overexpressing HEK293-cell line for 45 min at 4° C. After centrifugation the supernatants were removed and cells were washed with FACS blocking buffer and 100 μl/well rabbit anti-Strep-Tag antibody (GenScript; A00626), 1:300 diluted in FACS blocking buffer were added. After removal of the primary antibody goat anti-rabbit IgG Alexa Fluor 488 antibody (Invitrogen; A4008) was applied in a 1:1000 dilution in FACS blocking buffer. Flow cytometry measurement was conducted on the Guava easyCyte 5HT device from Merck-Millipore at excitation wavelength 488 nm and emission wavelength 525/30 nm. The * in table 2 refers to a fusion protein with the albumin binding domain as dimer (homo-dimer) and/or the targeting moiety as dimer.

Her2-Fc [8] = molecular target: T1, Her2-Fc; assay: ELISA on coated Her2-Fc; 0 h in human serum
Protocol: as §1, §2

Her2-Fc [9] = molecular target: T1, Her2-Fc; assay: ELISA on coated Her2-Fc; 0 h in mouse serum
Protocol: as §1, §2

Her2-Fc [10] = molecular target: T1, Her2-Fc; assay: ELISA on coated Her2-Fc; 24 h in mouse serum at 37 C
Protocol: as §1, §2

B1: fusion protein 218515 (designed binder, not shown: small tags and cut ends)
chain (part 1 of 2): not shown
chain (part 2 of 2): LAEAKVLALKELDKYGISNYYKNLINNAKTIEGVKALKAQIVAA
notes: also called CID 218515
- max binding after 24 h [%] (Her2-Fc [1]): 108%
- Kd [2]: 2500 pM
- max binding after 24 h [%] (Her2-Fc [3]): 96.1%
- Kd (Her2-Fc [4]): 280 pM
- increase of KD vs target [fold] (Her2-Fc [5]): 0.82 fold
- Kd (human serum albumin): 9100 pM
- increase of KD vs target [fold] (Her2-Fc [6]): 1.16 fold
- Kd [7]: 1470 pM
- Kd (Her2-Fc [8]): 340 pM
- Kd (Her2-Fc [9]): 180 pM
- Kd (Her2-Fc [10]): 210 pM

B2: fusion protein 218516 (designed binder, not shown: small tags and cut ends)
chain (part 1 of 2): not shown
chain (part 2 of 2): LAEAKVLAIKELDKAGISNYYFNLINNAKTVEGVKALKAQIVAA
notes: also called CID 218516
- max binding after 24 h [%] (Her2-Fc [1]): 101%
- Kd [2]: 2400 pM
- max binding after 24 h [%] (Her2-Fc [3]): 98.9%
- Kd (Her2-Fc [4]): 280 pM
- increase of KD vs target [fold] (Her2-Fc [5]): 0.71 fold
- Kd (human serum albumin): 10900 pM
- increase of KD vs target [fold] (Her2-Fc [6]): 1.21 fold
- Kd [7]: 2570 pM
- Kd (Her2-Fc [8]): 390 pM
- Kd (Her2-Fc [9]): 170 pM
- Kd (Her2-Fc [10]): 200 pM

— patent publication US20250388696A1 (NAVIGO PROTEINS, published 2025)
